Measurements reported in patent US20240384250A1, “FIBROBLAST GROWTH FACTOR 23 MODULATING COMPOUNDS” (THE UAB RESEARCH FOUNDATION, priority 2021, published 2024).

Tests used:
[1] = tested on: intact hearts isolated from adult mice; experiment: Isolated heart contractility; set-up: species or system mouse; conditions: FGF23 9 ng/ml, 30 minutes
Experimental: Isolated heart contractility was performed as described previously. 14,70,71 Briefly, 2- to 3-month-old male CD-1 mice were anesthetized using 3% isoflurane and hearts were carefully removed and placed into oxygenated Ringer's solution composed of 140 mM NaCl, 2.0 mM KCl, 2.5 mM CaCl2), 1.0 mM MgSO4, 1.5 mM K2HPO4, 10 mM N-2-hydroxyethylpiperazine-N-2-ethanesulfonic acid, and 10 mM glucose (pH 7.4). Atria were then removed, and the intact ventricular muscle was attached to small metallic clips hung vertically from a force transducer (ADInstruments) between bipolar platinum-stimulating electrodes and suspended in 25-ml glass tissue chambers (ADInstruments). Heart muscles were perfused with Ringer's solution continuously bubbled with 100% O2 at room temperature. Hearts were stretched to the length of maximum force development and paced at 1 Hz (5 ms pulse duration, 30-60 V; Grass Instruments SD9 Square Pulse Stimulator). After a stable baseline was obtained, hearts were treated with either vehicle or FGF23 (9 ng/ml) alone or in combination with heparin (0.06 USP/ml) while contractile force output was monitored for 30 minutes. Contractile data were recorded and analyzed with LabChart 8 software (ADInstruments). Waveform changes were analyzed for peak contraction force (in millinewtons) and maximum slope of force development and presented as fold change from baseline values.

FGFR4 = target: T1, FGFR4 (Homo sapiens, UniProt P22455); experiment: Surface plasmon resonance, FGFR4 ectodomain immobilized on chip; type: binding; conditions: SPR
T1 construct: Fc-FGFR4 protein (human ectodomain) was immobilized; purchased R&D Systems 685FR050
T1 sequence (P22455 22-369 limits assumed): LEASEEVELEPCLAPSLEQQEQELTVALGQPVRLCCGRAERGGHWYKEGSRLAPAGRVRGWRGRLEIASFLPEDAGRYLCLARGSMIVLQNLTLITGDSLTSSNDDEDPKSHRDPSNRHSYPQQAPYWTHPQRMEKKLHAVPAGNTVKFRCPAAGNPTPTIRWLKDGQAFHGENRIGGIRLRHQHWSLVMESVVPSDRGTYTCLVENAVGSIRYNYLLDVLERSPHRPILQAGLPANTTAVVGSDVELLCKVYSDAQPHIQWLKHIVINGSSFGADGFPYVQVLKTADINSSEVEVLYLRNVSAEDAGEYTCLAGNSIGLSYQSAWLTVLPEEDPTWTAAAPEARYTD
Experimental: For the direct quantitative analysis of label-free molecular interactions in real time, surface plasmon resonance studies were conducted using BIAcore T200 and T200 evaluation software (28975001, Cytiva). Sensor SA (BR100398) and CMS chips (BR100399) were from Cytiva. For the preparation of heparin chips, heparin (2 mg) and amine-PEG3-Biotin (2 mg, 21347, Pierce) were dissolved in 200 μl of H2O and 10 mg of NaCNBH3 was added. The reaction mixture was heated at 70° C. for 24 hours; an additional 10 mg of NaCNBH3 was added; and the reaction was heated at 70° C. for another 24 hours. After cooling to room temperature, the mixture was desalted with the spin column (3000 MWCO). Biotinylated heparin was collected, freeze dried, and used for chip preparation. Biotinylated heparin was immobilized to streptavidin chips according to the manufacturer's protocol. In brief, 20 μl of biotinylated heparin solution (0.1 mg/ml) in HBS-P running buffer (0.01 M N-2-hydroxyethylpiperazine-N′-2-ethanesulfonic acid, 0.15 M NaCl, 0.005% surfactant P20 [pH7.4]; BR100368, Cytiva) was injected over flow cell 2 of the streptavidin chip at a flow rate of 10 μl/min. The successful immobilization of heparin was confirmed by the observation of an approximately 200-resonance unit increase in the sensor chip. The control flow cell (flow cell 1) was prepared by 1-minute injection with saturated biotin. For the preparation of FGFR4 chips, Fc-FGFR4 protein (human ectodomain) was immobilized on research grade CMS chips according to the standard amine coupling protocol. Briefly, carboxymethyl groups on the CMS chip surface were first activated using an injection pulse of […] of an equimolar mix of N-ethyl-N-(dimethylaminopropyl) carbodiimide and N-hydroxysuccinimide (final concentration 0.05 M, mixed immediately before injection). After activation, FGFR4 was diluted to […] in 100 mM sodium acetate (pH 5.5) buffer and injected over the activated biosensor surface. […] The response was monitored as a function of time (sensorgram) at 25° C.

Kd (FGFR4): 320 nM | ka (FGFR4; 25° C.): 1.2 × 10^3 1/MS | kd (FGFR4; 25° C.): 0.04 1/S
B1: FGF23: recombinant fibroblast growth factor 23 protein from R&D Systems (protein)
chain: YPDTSPLLGSNWGSLTHLYTATARTSYHLQIHRDGHVDGTPHQTIYSALMITSEDAGSVVITGAMTRRFLCMDLHGNIFGSLHFSPENCKFRQWTLENGYDVYLSQKHHYLVSLGRAKRIFQPGTNPPPFSQFLARRNEVPLLHFYTVRPRRHTRSAEDPPERDPLNVLKPRPRATPVPVSCSRELPSAEEGGPAASDPLGVLRRGRGDARGGAGGADRCRPFPRFV
peak contraction force [1]: increased cardiac contractile force
